This is an account of results in US6942963 (MIT, dated 2005).

The experiment has as its target β-amyloid peptide βAP1-42. The experiment in a line: cell-based or functional assay.

Non-standard residues stand in square brackets, D forms with d.

Chain of β-amyloid peptide βAP1-42 (peptide, as listed by the source): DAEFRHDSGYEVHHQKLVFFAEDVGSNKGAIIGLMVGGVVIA

B1: decoy peptide DP16 (+NH3.T.P.I.R+.T.P.A.P.A.COO-) (peptide)
peptide: H-[dT][dP][dI][dR][dT][dP][dA][dP][dA]-OH
Regarding B1, the “decrease in aggregation rate of βAP1-42, light scattering at 500 nm, DP16 at 1:1 molar ratio” value was ~50%.
